Test results published in patent US20100016221A1, “METHOD OF DEGRADING PROTEIN BY CHAPERONE-MEDIATED AUTOPHAGY” (RIKEN, priority 2008, published 2010).

Target: T1, 150Q-EGFP (Homo sapiens, UniProt P42858)
T1 construct: N-terminal fragment of human huntington exon 1 (tNhtt); expressed in transfected cells; host or cells: Neuro2a cells, transient co-transfection (pcDNA3.1)
Experiment: Co-transfection with 150Q-EGFP in Neuro2a cells, confocal imaging with Lysotracker-rhodamine
Format: cell-based
Conditions: co-expression for 16 hours
Excerpt: The construction of the N-terminal fragment of human huntington exon 1 (tNhtt) encoding 60 CAG repeats was previously described (G. H. Wang et al., Neuroreport 10, 12(1999)). This fragment was fused to the N-terminal of a variant of yellow fluorescent protein (Venus) (T. Nagai et al., Nat. Biotechnol. 20, 1 (2002)) and inserted into the pcDNA3.1 vector (60Q). Two Hsc70 binding motifs (HSC70bm) (SEQ ID NOs:9 and 10: in bold) were inserted between the Cfr13I and BamHI cutting sites of 60Q: 5′-GTTAAGAAGGATCAA-GCTGGAGCCGCTGCACCG-AAGTTCGAACGTCAA-3′ (SEQ ID NO:11). The tNhtt-16Q-EGFP and tNhtt-150Q-EGFP plasmids for transient transfection were prepared by the introduction of the coding sequence into pcDNA3.1 vector (Invitrogen). […]
To investigate whether the (R)HQ targets the polyQ to lysosomes, the present inventors co-transfected HQ or other constructs with 16Q-EGFP or 150Q-EGFP to Neuro2a cells for 16 hours. In the cells expressing 16Q-EGFP, none of the co-transfected constructs had any effect on the subcellular distribution of the green fluorescence (FIG. 2C). […] To confirm this observation, the present inventors co-transfected the tested constructs with tNhtt-60Q to Neuro2a cells, 16 hours later purified intact lysosomes and analyzed them for the presence of the polyQ protein. […]

T1 sequence (P42858 with tags, fused parts or gaps): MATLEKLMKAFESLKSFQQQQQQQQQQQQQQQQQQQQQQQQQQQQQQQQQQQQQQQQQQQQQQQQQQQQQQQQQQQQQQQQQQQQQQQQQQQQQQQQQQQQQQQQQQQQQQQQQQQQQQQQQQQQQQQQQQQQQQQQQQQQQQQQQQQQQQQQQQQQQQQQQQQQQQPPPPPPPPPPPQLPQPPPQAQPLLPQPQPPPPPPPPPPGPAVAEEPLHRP

HSC70bm-(QBP1)2 (MARVKKDQAEPLHRKFERQPPGSNWKWWPGIFDSNWKWWPGIFD) [HQ]
subcellular distribution of 150Q-EGFP fluorescence: fluorescence intensity decreased, redistributed and partly co-localized with the lysosomal marker
